Data as given in patent US20250222032A1 (published 2025).

What was measured:
[1] = molecular target: T1, RAS G12D (KRAS, also HRAS and NRAS) peptide on HLA-A*11:01 (human); experiment: cytokine release
T1 peptide: VVVGADGVGK

[2] = molecular target: T2, RAS G12D (KRAS, also HRAS and NRAS) peptide on HLA-A*11:01 (human); experiment: cytokine release
T2 peptide: VVGADGVGK

[3] = molecular target: T3, RAS G12C peptide on HLA-A*11:01 (human); experiment: cytokine release
T3 peptide: VVVGACGVGK

[4] = molecular target: T4, RAS wild type (KRAS, also HRAS and NRAS) peptide on HLA-A*11:01 (human); experiment: multimer staining
T4 peptide: VVVGAGGVGK

[5] = molecular target: dextramers composed of HLA-A*11:01 complexes loaded with the RAS-WT peptide (human); experiment: dual dextramer labeling of TCR T3 transduced T cells, flow cytometry

B1: TCR T3 (TCR, V domains shown)
Valpha: GQQLNQSPQSMFIQEGEDVSMNCTSSSIFNTWLWYKQDPGEGPVLLIALYKAGELTSNGRLTAQFGITRKDSFLNISASIPSDVGIYFCAGRREGAQKLVFGQGTRLTINP
Vbeta: GAGVSQSPRYKVAKRGQDVALRCDPISGHVSLFWYQQALGQGPEFLTYFQNEAQLDKSGLPSDRFFAERPEGSVSTLKIQRTQQEDSAVYLCASSSTLMGVNIQYFGAGTRLSVL
binding result [1]: recognises
binding result [2]: recognises
binding result [3]: recognises
binding result [4]: recognises
fraction of the T cells that bound the dextramers [5]: 60%
